Source: US20200325224A1 (Hoffmann-La Roche, published 2020)

What was measured:
[1] = molecular target: T1, human CD3e-1-26-Fc(knob)-Avi/Fc(hole) (human, UniProt P0DOX5 223-449 = IgG part); experiment: ELISA, biotinylated target on streptavidin plate
T1 construct: First 26 amino acids of mature CD3e fused to Fc(knob), co-expressed with Fc(hole); biotinylated for the ELISA; also called huCD3e-1-26 huFc
Procedure: (§1) Binding of anti-CD3 antibodies to human and cynomolgus CD3 proteins and peptides was determined by ELISA. Biotinylated target proteins and peptides were immobilized on a 384-well streptavidin-coated microplate (MaxiSorb; MicroCoat, DE, Cat. No. 11974998/MC1099) in 25 μl/well, in DPBS (PAN Biotech GmbH, DE, Cat. No. P0436500) by incubation over night at 4° C. […] Peptides used were produced with biotin attached via linkers either to the N- or the C-terminus of the peptide. For target binding ELISA N- and C-terminal biotinylated peptides were mixed in a 1:1 ratio for immobilization on microplates (Table 8) and used separately (Table 8). […] Antibodies were detected with peroxidase-linked, species-specific anti-rabbit IgG, (F(ab′)₂ fragment, from donkey, GE, Cat. No. NA 9340) diluted 1:5000 in 1×PBS (w/0.5% BSA, w/0.05% Tween 20) for 1 h at room temperature. Detection antibodies were removed by four washing steps with washing buffer and signal was developed by addition of TMB substrate (TMB solution, Roche). Absorbance was read out after fixed time intervals at […].

[2] = molecular target: T2, cynomolgus CD3e 5-26-Fc(knob)-Avi/Fc(hole) (cynomolgus, UniProt P0DOX5 223-449 = IgG part); experiment: ELISA, biotinylated target on streptavidin plate
T2 construct: Residues 5-26 of mature CD3e fused to Fc(knob), co-expressed with Fc(hole); biotinylated for the ELISA; also called cyCD3e 5-26 huFc
Procedure: as §1

[3] = molecular target: T3, human CD3e 5-26-Fc(knob)-Avi/Fc(hole) (human, UniProt P0DOX5 223-449 = IgG part); experiment: ELISA, biotinylated target on streptavidin plate
T3 construct: Residues 5-26 of mature CD3e fused to Fc(knob), co-expressed with Fc(hole); biotinylated for the ELISA; also called huCD3e 5-26- huFc
Procedure: as §1

[4] = molecular target: T4, human CD3e amino acids 1-22 peptide (1:1 mixture of N- and C-terminally biotinylated variants) (human, biotin attached via linker to the N- or the C-terminus (1:1 mixture)); experiment: ELISA, biotinylated target on streptavidin plate
T4 construct: Linker not described; also called huCD3e- 1-22 peptide
Procedure: as §1

[5] = molecular target: T5, cynomolgus CD3e amino acids 1-22 peptide (1:1 mixture of N- and C-terminally biotinylated variants) (cynomolgus, biotin attached via linker to the N- or the C-terminus (1:1 mixture)); experiment: ELISA, biotinylated target on streptavidin plate
T5 construct: Linker not described; also called cyCD3e- 1-22 peptide; cynomolgus CD3 peptide-1-22
T5 peptide: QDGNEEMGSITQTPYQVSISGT
Procedure: as §1

[6] = molecular target: T6, cynomolgus CD3e stalk-Fc(knob)-Avi/CD3d-stalk-Fc(hole) (cynomolgus); experiment: SPR (BIACORE T100), antibody captured by anti-rabbit IgG Fc, antigen in solution, 25 C, 1:1 Langmuir
T6 construct: Heterodimer; biotinylated for the ELISA; used in solution in SPR; also called cyCD3ed stalk huFc; cynomolgusCD3e(stalk)Fc-Knob-CD3d(stalk)FcHole
Procedure: Around 2000 resonance units (RU) of the capturing system (10 μg/ml goat anti rabbit IgG Fc Fragment specific; Order Code: 111-005-046; Jackson Immuno Research) were coupled on a CM4 chip (GE Healthcare, BR-1005-34) at pH 5.0 by using an amine coupling kit supplied by the GE Healthcare. Running buffer for Immobilization was HBS-N pH 7.4 (10 mM HEPES, 150 mM NaCl, pH 7.4, GE Healthcare, BR-1006-70). For the followed kinetic assay running and dilution buffer was HBS-P pH 7.4 (10 mM HEPES, 150 mM NaCl, 0.05% Surfactant P20, pH 7.4, GE Healthcare, BR-1006-71). The flow cell was set to 25° C.—and the sample block set to 12° C.—and primed with running buffer twice. […] Association was measured by injection of human CD3e(stalk)Fc-Knob-CD3d(stalk)FcHole or cynomolgus CD3e(stalk)Fc-Knob-CD3d(stalk)FcHole in various concentrations in solution for 180 sec at a flow of 30 μl/min starting with 1350 nM, followed by one 1:1.5 dilution and further in 1:3 dilutions. The dissociation phase was monitored for up to 300 sec and triggered by switching from the sample solution to running buffer. The surface was regenerated by washing with two consecutive injections of a Glycine pH 1.7 solution for 60 sec at a flow rate of 10 μl/min. Bulk refractive index differences were corrected by subtracting the response obtained from a goat anti rabbit IgG Fc surface. Blank injections are also subtracted (=double referencing). For calculation of KD and other kinetic parameters the Langmuir 1:1 model was used.

T6 sequence (chain, as listed by the source limits assumed): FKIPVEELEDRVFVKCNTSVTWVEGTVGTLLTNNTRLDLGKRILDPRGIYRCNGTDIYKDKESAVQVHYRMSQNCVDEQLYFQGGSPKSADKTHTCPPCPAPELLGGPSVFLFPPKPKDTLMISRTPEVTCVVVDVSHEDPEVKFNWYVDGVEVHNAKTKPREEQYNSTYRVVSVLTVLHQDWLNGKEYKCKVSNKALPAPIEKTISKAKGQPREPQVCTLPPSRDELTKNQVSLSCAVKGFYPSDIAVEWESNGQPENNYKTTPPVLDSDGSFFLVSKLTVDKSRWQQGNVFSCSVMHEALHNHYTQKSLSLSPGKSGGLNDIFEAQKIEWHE
T4 sequence (peptide, as listed by the source mutant): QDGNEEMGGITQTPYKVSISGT

B1: antibody clone 645 (antibody, V domains shown)
VH: QSLEESGGDLVKPGASLTLTCLASGFSFSGTYWICWVRQAPGKGLEWIGCISTDSGSTYYASWAKGRFTISKTSSTTVTLQMTSLTAADTATNFCARSAYASEGYALWGPGTLVTVSS
VL: AIVMTQTPSSKSVPVGDTVTINCQASESVYNNNYLSWYQQKPGQPPKLLIYYASTLASGVSSRFKGSGSGTQFTLTISDVVCDDAATYYCTGWKSITTDGMGAFGGGTEVVVKG
notes: Rabbit monoclonal; Recombinantly expressed with rabbit gamma and kappa constant regions in HEK293 (captured by anti-rabbit IgG Fc in SPR); also called Mab.645
B1: no binding [1]; no binding [2]; no binding [3]. For the same binder, the binding result [4] was “no binding”, the binding result [5] was “no binding” and the Kd [6] was 620 nM. It also gave a koff [6] of 0.013 s⁻¹ and a kon [6] of 21000 M⁻¹ s⁻¹.
